Source: patent US20220112288A1 (published 2022)

Experiments:
[1] = molecular target: T1, human CD4 on cells (SKW3 cells; human PBMCs) (human, UniProt P01730 26-458); assay: FACS confirmation, supernatant on human PBMCs;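 note: flow cytometry with hybridoma supernatants incubated on human PBMCs for 30 min at 4 °C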
T1 construct: whole, on cells; SKW3 CD4 knockout cells served as the negative cell line in the primary screen; also called hCD4; huCD4

[2] = molecular target: T1, human CD4 on cells (SKW3 cells; human …); assay: FACS confirmation, supernatant on SKW3 cells; background gMFI 2500
[3] = molecular target: T1, human CD4 on cells (SKW3 cells; human …); assay: FACS confirmation, supernatant on SKW3 cells; background gMFI 3300
[4] = molecular target: T1, human CD4 on cells (SKW3 cells; human …); assay: FACS primary screen, hybridoma supernatant, SKW3 vs SKW3 CD4 KO cells;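 note: flow cytometry on mixed SKW3 and dye-labeled SKW3 CD4 knockout cells after 30 min at 4 °C with supernatant, ratio of binding signal on parental versus knockout cells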
[5] = molecular target: T1, human CD4 on cells (SKW3 cells; human …); assay: FACS binning on SKW3 cells; competitor OKT4a; background 5000, max binding 35000
[6] = molecular target: T1, human CD4 on cells (SKW3 cells; human …); assay: FACS binning on SKW3 cells; competitor OKT4-A488; background 2163, max binding 8200
[7] = molecular target: T1, human CD4 on cells (SKW3 cells; human …); assay: FACS binning on SKW3 cells; competitor RPA-T4-PE-Dazzle 594; background 783, max binding 15000
[8] = molecular target: T2, huCD4-HIS (human, UniProt P01730 26-390, limits assumed); assay: ELISA binning; competitor ibalizumab; 100 ng/mL huCD4-HIS, anti-HIS HRP; background 45, max binding 3000000
T2 construct: the ELISA is not described in the text of this stretch; also called human CD4-HIS

[9] = molecular target: T3, Recombinant human CD4 (R&D Systems, Cat. 10327-CD) (human, UniProt P01730 26-390, limits assumed); assay: BLI (Octet Red 384), non-clonal supernatant captured on AMC sensors, 100 nM human CD4
T3 construct: Bought protein; also called huCD4

[10] = molecular target: T3, Recombinant human CD4 (R&D Systems, …); assay: BLI (Octet Red 384), non-clonal supernatant captured on AMC sensors, 100 nM human CD4, 1:1 local fit;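 note: hybridoma antibodies from supernatants, one CD4 concentration giving single-point kinetics per supernatant, with curves fitted over both association and dissociation phases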
[11] = molecular target: T4, human CD4 on cells (SKW3 cells; human PBMCs) (human, UniProt P01730 26-458); assay: FACS confirmation, supernatant on human PBMCs, anti-mFc 647, CD4+ gate
T4 construct: whole, on cells; SKW3 CD4 knockout cells served as the negative cell line for the WT vs KO ratios; also called hCD4; SKW3 WT

[12] = molecular target: T4, human CD4 on cells (SKW3 cells; human …); assay: FACS confirmation, supernatant on SKW3 WT cells, anti-mFc 647 (Bkrd gMFI = 3300)
[13] = molecular target: T4, human CD4 on cells (SKW3 cells; human …); assay: FACS confirmation, supernatant on human PBMCs, anti-mFc 647, percent of viable cells
[14] = molecular target: T4, human CD4 on cells (SKW3 cells; human …); assay: FACS confirmation, supernatant on SKW3 WT cells, anti-hu Kappa FITC (Bkrd gMFI = 2500)
[15] = molecular target: T4, human CD4 on cells (SKW3 cells; human …); assay: FACS primary screen, non-clonal hybridoma supernatant; SKW3 WT vs SKW3 CD4 KO cells, anti-mFc-647
[16] = molecular target: T4, human CD4 on cells (SKW3 cells; human …); assay: FACS primary screen, non-clonal hybridoma supernatant; SKW3 WT vs SKW3 CD4 KO cells, anti-hKappa-FITC

Row | Binder | PBMCs CD4+ gate RL1 binding, anti-mFc 647 [1] | gMFI on SKW3 WT, anti-hu Kappa FITC [2] [gMFI] | gMFI on SKW3 WT, anti-mFc 647 [3] [gMFI] | SKW3 WT vs KO ratio, anti-hKappa-FITC [4] | SKW3 WT vs KO ratio, anti-mFc-647 [4] | OKT4a signal (anti-hu A647) with supernatant [5] | OKT4-A488 signal with supernatant [6] | RPA-T4-PE-Dazzle 594 signal with supernatant [7] | Ibalizumab ELISA binning signal [8] | Response [9] | Kd [10] [nM] | koff [10] [s⁻¹] | kon [10] [M⁻¹ s⁻¹] | PBMCs CD4+ percent bound of viable [1] [%] | also measured
1 | 75110_06C16A (antibody, V domains shown, Tested as non-clonal AlivaMab Mouse Kappa hybridoma supernatant (detected with anti-mouse Fc gamma and anti-human kappa)) VH: QVQLQESGPGLVTPSETLSLSCTVSGGSISDYYWSWIRQPGGKGLEWIGRIYSSGSTNYNPSLKSRVTMSVDTSKNQFSLKLSSVTAADTAVYFCARDREDYYYYGMDVWGQGTTVTVSS VL: DIQMTQSPSSLSASVGDRVTITCQASHDISNYLNWYQQKPGKAPKLLIYAASNLETGVPSRFSGSGSGTDFSFTISSLQPEDIATYYCQQYDHLPLTFGGGTKVEIK | 297000 | 4660 | 12100 | 1.9 | 5 | 36800 | 8240 | 15600 | 1.35e+06 | – | – | – | – | 28 | –
2 | 75110_02I16A (antibody, V domains shown, Tested as non-clonal AlivaMab Mouse hybridoma supernatant (human variable regions and human kappa, mouse Fc); also called ADS75110 non-clonal supernatant 02I16A) VH: QVQLQQWGAGLLKPSETLSLTCDVYGGSFSGYYWTWIRQPPGKGLEWIGEINHSGTTNSNPSLKSRVTISVDTSKSQFSLRLSSVTAADTAVYFCTRELNWFDPWGQGTLVTVSS VL: DIQMTQSPSSVSASVGDRVTITCRASQDIANWLAWYQQKPGKAPQLLIYAASSLLGGVPSRFSGSGSGADFTLTISSLHPEDFATYYCQQANSFPYTFGQGTKLEIK | – | – | – | – | – | – | – | – | – | 0.0373 | 3.9 | 0.0012 | 308000 | – | –
3 | 75110_05G15A (antibody, V domains shown) VH: QVQLQESGPGLVKPSQTLSLTCTVSGGSISSGGYFWSWIRQHPGKGLEWIGCIYYSGSTYYIPSLKSRVTISVDTSKNQFSLKLRSVTAADTAVYYCARDGYDYWYFDLWGRGTLVTVSS VL: not shown | 147000 | 6000 | 28600 | 1.5 | 2.8 | 42300 | 8080 | 15800 | 1.7e+06 | – | – | – | – | 32 | –
4 | 75110_01H18A (antibody, V domains shown, Tested as non-clonal AlivaMab Mouse hybridoma supernatant (human variable regions and human kappa, mouse Fc); also called ADS75110 non-clonal supernatant 01H18A) VH: QVQLQQWGAGLLKPSETLSLTCAVYGGSFSGYYWSWIRQSPGKGLEWIGEINQSGSTNYNPSLKSRVTISVDTSKNQFSLKLSSVTAADTAVYYCARVINWFDSWGQGTLVTVSS VL: DIQMTQSPSSVSASVGDRVTITCRASQGISSWLAWYQQKPGKAPKLLIYAASSFQSGVPSRFSGSGSGTDFTLTISSLQTEDFATYYCQQANSFPYTFGQGTRLEIK | – | – | – | – | – | – | – | – | – | 0.0657 | 0.902 | 0.000148 | 165000 | – | –
5 | 75110_03I08A (antibody, V domains shown, Tested as non-clonal hybridoma supernatant (AlivaMab Mouse Kappa), detected with anti-mouse Fc and anti-human kappa) VH: QVQLQESGPGLVKPSETLSLTCTVSGGSISSYYWSWIRQPPGKGLEWIGYIYYSGSTNYNPSLKSRVTISVDTSKNQFSLKLSSVTAADTAVYYCAREGEQWFYGLDVWGQGTTVTVSS VL: EIVLTQSPGTLSLSPGERATLSCRASQSVSSTYLAWYQQKPGQAPRLLIYGSSSRATGIPDRFSGSGSGTDFTLTISRLEPEDFAVYYCQQYGNSFPITFGQGTRLEIK | – | – | – | – | – | – | – | – | – | – | – | – | – | – | CD4+ gate RL1 Binding [11]: 338000; gMFI [12]: 28000 gMFI; CD4+ Percent Bound of Viable [13]: 32%; gMFI [14]: 6120 gMFI; SKW3 WT vs KO anti-mFc-647 [15]: 7.6 fold; SKW3 WT vs KO anti-hKappa-FITC [16]: 2.2 fold

Continued, in another order:

Row | PBMCs CD4+ gate RL1 binding, anti-mFc 647 [1] | gMFI on SKW3 WT, anti-hu Kappa FITC [2] [gMFI] | gMFI on SKW3 WT, anti-mFc 647 [3] [gMFI] | SKW3 WT vs KO ratio, anti-hKappa-FITC [4] | SKW3 WT vs KO ratio, anti-mFc-647 [4] | OKT4a signal (anti-hu A647) with supernatant [5] | OKT4-A488 signal with supernatant [6] | RPA-T4-PE-Dazzle 594 signal with supernatant [7] | Ibalizumab ELISA binning signal [8] | Response [9] | Kd [10] [nM] | koff [10] [s⁻¹] | kon [10] [M⁻¹ s⁻¹] | Binder | PBMCs CD4+ percent bound of viable [1] [%] | also measured
6 | 240000 | 8480 | 33700 | 3.3 | 9.3 | 30800 | 9310 | 16600 | 1.96e+06 | – | – | – | – | 75110_06G04A (antibody, V domains shown, Tested as non-clonal AlivaMab Mouse Kappa hybridoma supernatant (detected with anti-mouse Fc gamma and anti-human kappa)) VH: QVQLLESGPGLVKPSETLSLTCTVSGGSISSYYWSWIRQPAGKGLEWIGRIYISGSTNYNPSLKSRVTMSIDTSENQFSLNLSSVTAADTAVYYCARELERPYYYGMDVWGQGTTVTVSS VL: DIQMTQSPSSLSASVGDRVTITCQASQDISNYLNWYQQKPGKAPKLLIYNASTLETGVPSRFSGSGSGTDFTFTISSLQPEDIATYYCQQYDNLPLTFGGGTKVEFK | 30 | –
7 | 278000 | 3570 | 20100 | 1.1 | 4.1 | 42500 | 7930 | 14600 | 887000 | – | – | – | – | 75110_08D24A (antibody, V domains shown, Tested as non-clonal AlivaMab Mouse Kappa hybridoma supernatant (detected with anti-mouse Fc gamma and anti-human kappa)) VH: QVQLQESGPGLVKPSETLSLTCTVSGGSISGFYWSWIRQPAGKGLEWIGRIYTSENTNYNPSLKSRVTMSVDTSKNQFSLKLSSVTAADTAVYYCARDREGYYYYGMDVWGQGTTVTVSS VL: DIQMTQSPSSLSASVGDRVTITCQASQDISNYLNWYQQKPGKAPKLLIYAASNLETGVPSRFSGSGSGTDFTFTISSLQPEDIATYYCQQYDSLPITFGQGTRLEIK | 30 | –
8 | – | – | – | – | – | – | – | – | – | 0.0687 | 2.66 | 0.000362 | 136000 | 75110_10K21A (antibody, V domains shown, Tested as non-clonal AlivaMab Mouse hybridoma supernatant (human variable regions and human kappa, mouse Fc); also called ADS75110 non-clonal supernatant 10K21A) VH: EVQLVESGGGLVQPGGSLRLSCAASGFTFSSYWMTWVRQAPGKGLEWVANIKQDGSEKYYVDSVKGRFTISRDNAKNSLYLQMNSLRAEDTAVYYCVRDRYDALDIWGQGTMVTVSS VL: AIQMTQSPSSLSASVGDRVTITCRASQGIRNDLNWYQQKPGKAPKLLIYAASSLQSGVPSRFSGSGSGTDFTLTISSLQAEDFATYYCLKDYNYPYTFGQGTKLEIK | – | –
9 | – | – | – | – | – | – | – | – | – | 0.0658 | 0.873 | 0.000133 | 152000 | 75110_10N21A (antibody, V domains shown, Tested as non-clonal AlivaMab Mouse hybridoma supernatant (human variable regions and human kappa, mouse Fc); also called ADS75110 non-clonal supernatant 10N21A) VH: EVQLVESGGGLVQPGGSLRLSCAASGFTFSSYDMHWVRQVTGKGLEWVSTIGTAGDTYYPGSVKGRFTISRENAKNSLYLQMNSLRAGDTAVYYCARGGYYYYGMDVWGQGTTVTVSS VL: EIVLTQSPGTLSLSPGERATLSCRASQSFISSYLAWYQQKPGQAPRLLIYGASSRATGIPDRFSGSGSGTDFTLTISRLDPEDFAVYYCQQSGNSPFTFGPGTKVDVK | – | –
10 | – | – | – | – | – | – | – | – | – | 0.14 | < 0.001 | < 1e-07 | 100000 | 75110_14H13A (antibody, V domains shown, Tested as non-clonal AlivaMab Mouse hybridoma supernatant (human variable regions and human kappa, mouse Fc); also called ADS75110 non-clonal supernatant 14H13A) VH: EVQLVESGGGLVQPGGSLRLSCAASGFTFSNYDMHWVRQATGKGLEWVSTIGTAGDTYYPGSVKGRFTISRKNAKNSLYLQMISLRAGDTAVYYCARGGDYYYGMDVWGQGTTVTVSS VL: not shown | – | –
11 | – | – | – | – | – | – | – | – | – | 0.0171 | 84 | 0.0182 | 217000 | 75110_13C07A (antibody, V domains shown, Tested as non-clonal AlivaMab Mouse hybridoma supernatant (human variable regions and human kappa, mouse Fc); also called ADS75110 non-clonal supernatant 13C07A) VH: EVQLVESGGVLVQPGGSLRLSCAASGFTFSNYDMHWVRQATGKGLEWVSTIGTAGDTYYPGSVKGRFTLSRENAKNSLYLQMHSLRAGDTAVYYCARGAYGYYGMDVWGQGTTVTVSS VL: not shown | – | –
